According to PMC10110553:
Numbering of substitutions follows the chain as printed.

B1: PP5^(αJ del) (PP5 with the last 10 residues truncated) (enzyme)
chain: MAMAEGERTECAEPPRDEPPADGALKRAEELKTQANDYFKAKDYENAIKFYSQAIELNPSNAIYYGNRSLAYLRTECYGYALGDATRAIELDKKYIKGYYRRAASNMALGKFRAALRDYETVVKVKPHDKDAKMKYQECNKIVKQKAFERAIAGDEHKRSVVDSLDIESMTIEDEYSGPKLEDGKVTISFMKELMQWYKDQKKLHRKCAYQILVQVKEVLSKLSTLVETTLKETEKITVCGDTHGQFYDLLNIFELNGLPSETNPYIFNGDFVDRGSFSVEVILTLFGFKLLYPDHFHLLRGNHETDNMNQIYGFEGEVKAKYTAQMYELFSEVFEWLPLAQCINGKVLIMHGGLFSEDGVTLDDIRKIERNRQPPDSGPMCDLLWSDPQPQNGRSISKRGVSCQFGPDVTKAFLEENNLDYIIRSHEVKAEGYEVAHGGRCVTVFSAPNYCDQMGNKASYIHLQGSDLRPQFHQFTAVPHPNVKPMAY
modifications: Alexa488 (maleimide dye) in the FCS assays
B2: Serine/threonine-protein phosphatase 5 (PP5), wild type (enzyme)
chain: MAMAEGERTECAEPPRDEPPADGALKRAEELKTQANDYFKAKDYENAIKFYSQAIELNPSNAIYYGNRSLAYLRTECYGYALGDATRAIELDKKYIKGYYRRAASNMALGKFRAALRDYETVVKVKPHDKDAKMKYQECNKIVKQKAFERAIAGDEHKRSVVDSLDIESMTIEDEYSGPKLEDGKVTISFMKELMQWYKDQKKLHRKCAYQILVQVKEVLSKLSTLVETTLKETEKITVCGDTHGQFYDLLNIFELNGLPSETNPYIFNGDFVDRGSFSVEVILTLFGFKLLYPDHFHLLRGNHETDNMNQIYGFEGEVKAKYTAQMYELFSEVFEWLPLAQCINGKVLIMHGGLFSEDGVTLDDIRKIERNRQPPDSGPMCDLLWSDPQPQNGRSISKRGVSCQFGPDVTKAFLEENNLDYIIRSHEVKAEGYEVAHGGRCVTVFSAPNYCDQMGNKASYIHLQGSDLRPQFHQFTAVPHPNVKPMAYANTLLQLGMM
modifications: Alexa488 (maleimide dye) in the FCS assays
B3: PP5^R113D (enzyme)
chain: B2 chain with R113D
modifications: Alexa488 (maleimide dye) in the FCS assays
B4: PP5^R150D (enzyme)
chain: B2 chain with R150D
modifications: Alexa488 (maleimide dye) in the FCS assays
B5: PP5^F148K (enzyme)
chain: B2 chain with F148K
modifications: Alexa488 (maleimide dye) in the FCS assays

Columns and labels:
[1] = target: Hsp90 of the yeast-purified Hsp90:Cdc37:CRaf^KD complex (human) (UniProt P08238); assay: cryo-EM structure; same sample as a1; pairs inside the natively isolated Hsp90^closed:Cdc37:CRaf^KD complex, which was assembled in yeast and co-purified
UniProt P08238, sequence (P08238 2-724 limits assumed): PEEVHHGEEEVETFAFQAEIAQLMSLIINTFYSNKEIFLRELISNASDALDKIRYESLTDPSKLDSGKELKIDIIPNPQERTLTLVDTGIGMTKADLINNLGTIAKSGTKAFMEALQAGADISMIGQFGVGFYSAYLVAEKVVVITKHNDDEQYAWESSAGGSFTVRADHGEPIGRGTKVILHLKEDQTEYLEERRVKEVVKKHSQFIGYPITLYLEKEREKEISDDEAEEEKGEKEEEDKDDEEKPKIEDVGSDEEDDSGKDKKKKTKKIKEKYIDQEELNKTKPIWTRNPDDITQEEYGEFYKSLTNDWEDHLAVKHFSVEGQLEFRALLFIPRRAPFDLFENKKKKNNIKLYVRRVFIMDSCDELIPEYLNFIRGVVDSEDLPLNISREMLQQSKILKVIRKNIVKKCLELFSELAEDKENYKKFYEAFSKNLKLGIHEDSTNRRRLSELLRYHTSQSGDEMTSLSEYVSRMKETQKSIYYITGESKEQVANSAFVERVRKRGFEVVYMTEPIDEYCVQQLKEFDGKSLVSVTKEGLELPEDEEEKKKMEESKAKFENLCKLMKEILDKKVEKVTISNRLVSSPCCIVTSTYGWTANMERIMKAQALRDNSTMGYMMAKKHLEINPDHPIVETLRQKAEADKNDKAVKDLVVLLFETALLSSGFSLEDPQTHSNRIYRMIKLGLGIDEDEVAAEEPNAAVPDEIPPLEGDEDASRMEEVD

[2] = target: Hsp90 (E. coli purified; used as Hsp90^open without nucleotide or Hsp90^closed) (human) (UniProt P08238)
[3] = target: Hsp90 of the mammalian-purified Hsp90:Cdc37:CRaf complexes (human) (UniProt P08238)
[4] = target: Hsp90 (E. coli purified; used as Hsp90^open without nucleotide or Hsp90^closed) (human) (UniProt P08238); assay: fluorescence correlation spectroscopy (FCS); ~20 nM Alexa488-labelled PP5 with varying concentrations of Hsp90^open; room temperature; hydrodynamic radius against Hsp90 concentration, one-site total binding fit; apparent KD
[5] = target: Hsp90 (E. coli purified; used as Hsp90^open without nucleotide or Hsp90^closed) (human) (UniProt P08238); assay: fluorescence correlation spectroscopy (FCS); ~20 nM Alexa488-labelled PP5 with varying concentrations of Hsp90^closed dimer; room temperature; hydrodynamic radius against Hsp90 concentration, one-site total binding fit; apparent KD
[6] = target: Hsp90 (E. coli purified; used as Hsp90^open without nucleotide or Hsp90^closed) (human) (UniProt P08238); remark: listed apart in the source
[7] = target: Hsp90 of the mammalian-purified Hsp90:Cdc37:CRaf complexes (human) (UniProt P08238); remark: listed apart in the source
[8] = target: Hsp90 (E. coli purified; used as Hsp90^open without nucleotide or Hsp90^closed) (human) (UniProt P08238); assay: fluorescence correlation spectroscopy (FCS); ~20 nM Alexa488-labelled PP5 with varying concentrations of Hsp90^closed dimer; room temperature; hydrodynamic radius against Hsp90 concentration, one-site total binding fit; apparent KD; remark: listed apart in the source

Molecule	stoichiometry N [1]	rate of Cdc37 dephosphorylation by PP5^(αJ del) while Cdc37 is bound to Hsp90 [2] [min⁻¹]	rate of CRaf^pS338 dephosphorylation by PP5^(αJ del) in the Hsp90:Cdc37:CRaf complex [3] [min^−1]	Kd [4] [µM]	Kd [5] [µM]	rate of Cdc37^pS13 dephosphorylation by PP5 in Hsp90^open:Cdc37^pS13 (3 μM Cdc37^pS13 and equimolar Hsp90, 750 nM PP5, 25 °C) [6] [min^−1]	rate of CRaf^pS338 dephosphorylation by PP5 in the Hsp90:Cdc37:CRaf complex (3 μM complex, 150 nM PP5, 25 °C) [7] [min^−1]	Kd [8] [µM]
Hsp90 of the yeast-purified Hsp90:Cdc37:CRaf^KD complex (from UniProt P08238 1-724) (natural protein)	2							
B1		0.055	0.28	0.12	0.13			
B2				0.62	0.43	0.043	0.19	230
B3						0.006	0.046	4300
B4						0.012	0.04	3300
B5						0.009	0.05	2000
